Data from patent publication US20190177434A1 (published 2019).
One block for each binder: values may come before it.

Columns and labels:
[1] = target: T1, Human IgG, Fc fragment (human); test: method not given
T1 construct: domain: Fc; the ELISA plates were coated with 'antibody antigens', so whole IgG may have stood there; also called human IgG-Fc domain; IgG Fc domain species: human

[2] = target: T2, Human IgG1 (human, UniProt P01857-1 1-330 = IgG part); test: SPR, VHH immobilised, IgG as analyte, 1:1 Langmuir
T2 construct: purified IgG of this subclass; also called HuIgG1
T2 sequence (P01857 other isoform, or with tags, fused parts or gaps): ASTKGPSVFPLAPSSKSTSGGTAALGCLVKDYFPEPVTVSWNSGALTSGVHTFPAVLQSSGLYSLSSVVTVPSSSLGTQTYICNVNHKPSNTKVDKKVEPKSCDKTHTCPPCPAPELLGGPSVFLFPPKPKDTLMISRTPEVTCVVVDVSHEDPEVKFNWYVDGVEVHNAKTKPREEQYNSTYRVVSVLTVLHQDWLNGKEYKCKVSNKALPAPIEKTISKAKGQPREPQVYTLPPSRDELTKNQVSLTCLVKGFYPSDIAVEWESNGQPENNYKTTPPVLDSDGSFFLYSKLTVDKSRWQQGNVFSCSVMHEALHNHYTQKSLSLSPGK
Method: (§1) Binding affinity constants of anti IgG-Fc VHH fragments were determined using surface plasmon resonance analysis (SPR) on a BiaCore 3000. For this purpose, purified VHH fragments were immobilised onto the surface of a CM5 sensor chip and subsequently incubated with different concentrations of purified IgG antibodies in HBS-EP buffer. Binding was allowed for 3 minutes at 30 μl/min followed by a dissociation step of 15 minutes at 30 μl/min. Binding curves were fitted according to a 1:1 Langmuir binding model using Biacore software.

[3] = target: T3, Human IgG4 (human, UniProt P01861-1 1-327 = IgG part); test: SPR, VHH immobilised, IgG as analyte, 1:1 Langmuir
T3 construct: purified IgG of this subclass; also called HuIgG4
T3 sequence (P01861 other isoform, or with tags, fused parts or gaps): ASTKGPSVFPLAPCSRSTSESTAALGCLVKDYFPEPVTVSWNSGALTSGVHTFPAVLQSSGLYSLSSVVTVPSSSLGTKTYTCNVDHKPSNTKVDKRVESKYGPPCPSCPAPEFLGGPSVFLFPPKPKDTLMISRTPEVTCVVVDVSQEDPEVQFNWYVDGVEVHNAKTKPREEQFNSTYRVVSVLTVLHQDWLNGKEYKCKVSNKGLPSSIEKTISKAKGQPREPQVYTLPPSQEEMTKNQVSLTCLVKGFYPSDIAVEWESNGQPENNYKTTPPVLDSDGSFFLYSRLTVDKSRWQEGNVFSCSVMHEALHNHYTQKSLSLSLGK
Method: as §1

[4] = target: T4, Human IgG2 (human, UniProt P01859-1 1-326 = IgG part); test: SPR, VHH immobilised, IgG as analyte, 1:1 Langmuir
T4 construct: purified IgG of this subclass; also called HuIgG2
T4 sequence (P01859 other isoform, or with tags, fused parts or gaps): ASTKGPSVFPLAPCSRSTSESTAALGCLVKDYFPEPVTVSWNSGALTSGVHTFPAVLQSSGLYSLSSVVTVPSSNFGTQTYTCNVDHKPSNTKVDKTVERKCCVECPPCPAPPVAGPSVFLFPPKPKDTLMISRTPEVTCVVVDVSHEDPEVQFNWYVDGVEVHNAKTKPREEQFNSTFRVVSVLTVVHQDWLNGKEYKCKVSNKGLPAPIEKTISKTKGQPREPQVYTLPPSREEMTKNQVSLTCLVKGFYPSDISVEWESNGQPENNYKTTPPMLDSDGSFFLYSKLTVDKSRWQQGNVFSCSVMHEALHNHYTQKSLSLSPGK
Method: as §1

[5] = target: T5, Human IgG3 (human, UniProt P01860-1 1-377); test: SPR, VHH immobilised, IgG as analyte, 1:1 Langmuir
T5 construct: purified IgG of this subclass; also called HuIgG3
T5 sequence (P01860 other isoform, or with tags, fused parts or gaps): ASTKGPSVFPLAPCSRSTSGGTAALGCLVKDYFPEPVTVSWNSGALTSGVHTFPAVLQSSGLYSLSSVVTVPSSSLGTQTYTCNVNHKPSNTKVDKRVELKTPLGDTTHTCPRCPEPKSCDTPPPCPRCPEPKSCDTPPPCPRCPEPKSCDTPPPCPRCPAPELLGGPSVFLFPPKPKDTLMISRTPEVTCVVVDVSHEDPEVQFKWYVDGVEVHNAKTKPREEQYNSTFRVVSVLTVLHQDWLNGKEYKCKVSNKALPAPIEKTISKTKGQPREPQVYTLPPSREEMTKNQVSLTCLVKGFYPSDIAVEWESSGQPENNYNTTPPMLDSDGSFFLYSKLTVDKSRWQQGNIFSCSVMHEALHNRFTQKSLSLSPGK
Method: as §1

[6] = target: T2, Human IgG1; test: SPR, IgG-Fc-16 immobilised, IgG 50 µg/ml
Method: (§2) Broad binding reactivity of VHH fragment IgG-Fc-16 was determined using surface plasmon resonance analysis (SPR) on a BiaCore 3000. For this purpose, purified VHH fragment IgG-Fc-16 was immobilised onto the surface of a CM5 sensor chip and subsequently incubated with purified IgG antibodies (50 μg/ml) from different species in HBS-EP buffer. Binding was allowed for 1 minute at 5 μl/min followed by a dissociation step of 2.5 minutes at 5 μl/min. Binding signals (Resonance Units) were compared to background signals measured with HBS-EP buffer only. For comparison, the relative reactivity of Protein A and G towards different IgG species is also given.

[7] = target: Rat IgG2a (rat, UniProt P20760 1-322); test: SPR, IgG-Fc-16 immobilised, IgG 50 µg/ml
Chain of Rat IgG2a (P20760 whole entry): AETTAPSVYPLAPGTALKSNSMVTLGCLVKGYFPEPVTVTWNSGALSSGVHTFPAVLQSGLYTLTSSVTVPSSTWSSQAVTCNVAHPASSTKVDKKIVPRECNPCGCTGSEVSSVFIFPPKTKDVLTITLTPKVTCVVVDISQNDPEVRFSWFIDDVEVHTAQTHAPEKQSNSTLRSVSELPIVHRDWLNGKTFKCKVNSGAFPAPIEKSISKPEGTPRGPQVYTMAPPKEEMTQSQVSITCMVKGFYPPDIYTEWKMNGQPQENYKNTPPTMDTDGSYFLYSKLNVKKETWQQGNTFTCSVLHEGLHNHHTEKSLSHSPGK
Method: as §2

[8] = target: T3, Human IgG4; test: SPR, IgG-Fc-16 immobilised, IgG 50 µg/ml
Method: as §2

[9] = target: Mouse IgG 1 (mouse, UniProt P01868 1-324 = IgG part); test: SPR, IgG-Fc-16 immobilised, IgG 50 µg/ml
Method: as §2

[10] = target: Chicken IgG (chicken); test: SPR, IgG-Fc-16 immobilised, IgG 50 µg/ml
Method: as §2

[11] = target: Rat IgG2b (rat, UniProt P20761 1-333); test: SPR, IgG-Fc-16 immobilised, IgG 50 µg/ml
Chain of Rat IgG2b (P20761 whole entry): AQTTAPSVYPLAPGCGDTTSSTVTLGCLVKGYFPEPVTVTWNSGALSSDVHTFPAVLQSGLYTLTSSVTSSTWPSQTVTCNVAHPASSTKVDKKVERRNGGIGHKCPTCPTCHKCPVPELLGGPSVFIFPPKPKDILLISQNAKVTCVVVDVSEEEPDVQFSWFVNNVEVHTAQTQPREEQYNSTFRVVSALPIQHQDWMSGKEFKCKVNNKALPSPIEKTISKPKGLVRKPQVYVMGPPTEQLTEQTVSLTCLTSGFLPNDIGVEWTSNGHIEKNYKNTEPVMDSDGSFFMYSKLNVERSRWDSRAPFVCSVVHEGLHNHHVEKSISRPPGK
Method: as §2

[12] = target: Mouse IgG2a (mouse, UniProt P01863 1-330 = IgG part); test: SPR, IgG-Fc-16 immobilised, IgG 50 µg/ml
Chain of Mouse IgG2a (P01863 whole entry): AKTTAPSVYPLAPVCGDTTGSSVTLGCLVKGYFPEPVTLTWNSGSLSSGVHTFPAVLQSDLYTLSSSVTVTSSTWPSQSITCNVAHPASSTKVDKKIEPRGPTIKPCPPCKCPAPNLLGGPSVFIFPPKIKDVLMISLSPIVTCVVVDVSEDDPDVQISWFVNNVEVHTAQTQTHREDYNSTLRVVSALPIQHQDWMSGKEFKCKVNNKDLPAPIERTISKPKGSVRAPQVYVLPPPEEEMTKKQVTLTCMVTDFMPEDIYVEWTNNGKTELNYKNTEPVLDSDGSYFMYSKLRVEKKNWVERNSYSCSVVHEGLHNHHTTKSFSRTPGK
Method: as §2

[13] = target: T6, Rat IgG1a (rat, UniProt P20759 1-326); test: SPR, IgG-Fc-16 immobilised, IgG 50 µg/ml
T6 construct: label 'IgG1a' as printed
T6 sequence (P20759 whole entry): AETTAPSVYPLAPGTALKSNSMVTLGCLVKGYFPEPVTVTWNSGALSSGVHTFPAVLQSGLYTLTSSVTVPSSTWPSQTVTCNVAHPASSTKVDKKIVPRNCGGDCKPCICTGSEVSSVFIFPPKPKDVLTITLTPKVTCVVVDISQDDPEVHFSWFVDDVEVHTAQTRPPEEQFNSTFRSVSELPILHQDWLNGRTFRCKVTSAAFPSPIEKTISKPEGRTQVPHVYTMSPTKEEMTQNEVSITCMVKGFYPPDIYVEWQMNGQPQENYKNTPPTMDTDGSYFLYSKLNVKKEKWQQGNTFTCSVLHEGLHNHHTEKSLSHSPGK
Method: as §2

[14] = target: Rat IgG2c (rat, UniProt P20762 1-329); test: SPR, IgG-Fc-16 immobilised, IgG 50 µg/ml
Chain of Rat IgG2c (P20762 whole entry): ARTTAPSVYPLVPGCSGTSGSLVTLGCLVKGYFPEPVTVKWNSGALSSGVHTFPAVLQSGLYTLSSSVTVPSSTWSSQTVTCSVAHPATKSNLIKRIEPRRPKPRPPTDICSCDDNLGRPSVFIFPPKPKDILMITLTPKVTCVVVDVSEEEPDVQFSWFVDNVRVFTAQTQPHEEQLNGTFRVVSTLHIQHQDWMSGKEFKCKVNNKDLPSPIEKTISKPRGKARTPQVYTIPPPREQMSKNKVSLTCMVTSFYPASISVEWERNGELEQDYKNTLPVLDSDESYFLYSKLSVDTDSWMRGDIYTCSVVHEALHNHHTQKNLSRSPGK
Method: as §2

[15] = target: T7, Guinea IgG (guinea pig); test: SPR, IgG-Fc-16 immobilised, IgG 50 µg/ml
T7 construct: printed 'Guinea IgG'; also called guinea pig IgG
Method: as §2

[16] = target: T4, Human IgG2; test: SPR, IgG-Fc-16 immobilised, IgG 50 µg/ml
Method: as §2

[17] = target: T5, Human IgG3; test: SPR, IgG-Fc-16 immobilised, IgG 50 µg/ml
Method: as §2

Ka [1]: ≥ 4e+09 M⁻¹
B1: IgG-Fc-10 (VHH)
VHH: QVQLQESGGGLVQAGDSLRISCRASGLTVNDLYMGWFRQAPGKEREFVGRVTPGDNTDYTYYVDSVKGRFTISRDSAKNTVYLQMNSLKLEDTAVYLCAGRRFGSSEWDYWGQGTQVTVSS

Ka [2]: 1.74e+09 M⁻¹
Kd [2]: 0.575 nM
koff [2]: 0.000208 s⁻¹
kon [2]: 361000 M⁻¹ s⁻¹
Ka [3]: 3.32e+09 M⁻¹
Kd [3]: 0.302 nM
koff [3]: 5.91e-05 s⁻¹
kon [3]: 196000 M⁻¹ s⁻¹
Ka [4]: 5.76e+08 M⁻¹
Kd [4]: 1.73 nM
koff [4]: 0.000212 s⁻¹
kon [4]: 122000 M⁻¹ s⁻¹
Ka [5]: 2.09e+07 M⁻¹
Kd [5]: 47.8 nM
koff [5]: 0.000272 s⁻¹
kon [5]: 5690 M⁻¹ s⁻¹
B2: IgG-Fc-01 (VHH)
VHH: QVQLQESGGGLVQPGGSLRLSCAASGGTSIRIGSINALAWYRQALGNQRELVAAVTEGGSTNYADFVKGRFTISRDNAQNMMYLQMNSLKPEDTAVYYCNADKVLYSRGGYYSVANDLWGQGTQVTVSS
notes: also called IgG-Fc-1

Binding signal (RU) [6]: 1570 RU
Binding signal (RU) [7]: 444 RU
Binding signal (RU) [8]: 710 RU
Binding signal (RU) [9]: 1610 RU
Binding signal (RU) [10]: -3.1 RU
Binding signal (RU) [11]: 512 RU
Binding signal (RU) [12]: 427 RU
Binding signal (RU) [13]: 431 RU
Binding signal (RU) [14]: 2130 RU
Binding signal (RU) [15]: 577 RU
Binding signal (RU) [16]: 795 RU
Binding signal (RU) [17]: 499 RU
Ka [2]: 1.47e+08 M⁻¹
Kd [2]: 6.81 nM
koff [2]: 0.000211 s⁻¹
kon [2]: 31000 M⁻¹ s⁻¹
Ka [3]: 5.89e+08 M⁻¹
Kd [3]: 1.7 nM
koff [3]: 0.000107 s⁻¹
kon [3]: 62900 M⁻¹ s⁻¹
Ka [4]: 6.17e+07 M⁻¹
Kd [4]: 16.2 nM
koff [4]: 0.000355 s⁻¹
kon [4]: 21900 M⁻¹ s⁻¹
Ka [5]: 4.69e+07 M⁻¹
Kd [5]: 21.3 nM
koff [5]: 0.000849 s⁻¹
kon [5]: 39800 M⁻¹ s⁻¹
B3: IgG-Fc-16 (VHH)
VHH: QVQLQESGGGLVQAGGSLRLSCAASGRAVGNYIIGWFRQAPGKEREFVATTTRDGGSTFYADSVKGRFTISRDNAKNTVNLQMNSLEPEDTAVYYCAAKSWSVPLRPTSADFDSWGQGTQVTVSS
